What was measured:
Assay type in all cases: in vivo
C57BL/6J mice [1] = assay: Airway hyper-responsiveness (AHR) with FlexiVent system in APO-induced asthma model; details: 50 uL of 1 mg/ml, 1 h before allergen challenge; in comparison with control ferritin; FIG. 17a
Experimental: (§1) Wild-type C57BL/6J mice were purchased from Jackson Laboratory (Bar Harbor, Me., USA), and bred in a pathogen-free animal facility. All animals were fed with a normal diet (PMI Lab Diet) with free access to water. 6-8-week-old female mice were used for this study. Animal care and experimental procedures were performed with the approval of the Animal Care Committee of KAIST.
(§2) Asthma induction was performed by the existing method (Corry D B, Folkesson H G, Warnock M L, Erle D J, Matthay M A, et al. (1996) J Exp Med 183: 109117).
Briefly, Aspergillus oryzae protease (1 mg/mL in PBS, Sigma-Aldrich) and chicken egg ovalbumin (OVA, 0.5 mg/mL in PBS, Sigma-Aldrich) allergen (APO) were mixed 1:9 (v/v) immediately before administration. Mice received four intraperitoneal sensitizations and the intranasal challenge every 4 days (0, 4, 8, 12, 16) with 50 uL of allergen. For intranasal challenge, mice were lightly anesthetized with isoflurane inhalation (Abbott Laboratory, Abbott Park, Ill., USA). A 50 uL of AP1-retaining ferritin cage (GG-AP1L, 157cysAP1-PBNC) or AP1-not-inserted ferritin cage (wt FTL), which was diluted to 1 mg/ml in PBS, was administered 1 h before allergen challenge. […]
Briefly, 16 h after final intranasal challenge, AHR was measured with a FlexiVent system (SCIREQ Inc., Montreal, Canada). […]

C57BL/6J mice [2] = assay: BAL cytology in APO-induced asthma model; details: 50 uL of 1 mg/ml, 1 h before allergen challenge; in comparison with control ferritin
Experimental: as §1, §2
(§3) Briefly, Aspergillus oryzae protease (1 mg/mL in PBS, Sigma-Aldrich) and chicken egg ovalbumin (OVA, 0.5 mg/mL in PBS, Sigma-Aldrich) allergen (APO) were mixed 1:9 (v/v) immediately before administration. Mice received four intraperitoneal sensitizations and the intranasal challenge every 4 days (0, 4, 8, 12, 16) with 50 uL of allergen. For intranasal challenge, mice were lightly anesthetized with isoflurane inhalation (Abbott Laboratory, Abbott Park, Ill., USA). A 50 uL of AP1-retaining ferritin cage (GG-AP1L, 157cysAP1-PBNC) or AP1-not-inserted ferritin cage (wt FTL), which was diluted to 1 mg/ml in PBS, was administered 1 h before allergen challenge.
For phenotypes of allergic asthma, AHR, BAL cytology, BAL glycoprotein assay, and lung histopathology were performed by the existing method (Lee, S. H., et al. (2003) Nat. Med. 9, 128111286). […]

C57BL/6J mice [3] = assay: Secreted glycoprotein in BAL fluid (modified ELISA) in APO-induced asthma model; details: 50 uL of 1 mg/ml, 1 h before allergen challenge; FIG. 17d
Experimental: as §1
Briefly, Aspergillus oryzae protease (1 mg/mL in PBS, Sigma-Aldrich) and chicken egg ovalbumin (OVA, 0.5 mg/mL in PBS, Sigma-Aldrich) allergen (APO) were mixed 1:9 (v/v) immediately before administration. Mice received four intraperitoneal sensitizations and the intranasal challenge every 4 days (0, 4, 8, 12, 16) with 50 uL of allergen. […]
Levels of secreted glycoprotein were measured with modified ELISA by the existing method (Lee, S. H. et al., (2004) J. Allergy Clin. Immunol. 113, 72778.). […]
40 ul of each sample was transferred to an ELSA plate Greiner, Kremsmunster, Austria), and incubated at 37° C. for 2 h. […] After final washing upon the completion of the reaction, 70 ul of alkaline phosphatase substrate (5 mmol in 0.1 mol/L alkaline buffer, Sigma-Aldrich) was added, and developed until a mucin standard curve was readily apparent. After termination of the reaction with addition of 40 ul of 0.5 N sodium hydroxide, optical density was measured at 405 nm by an ELISA reader (BioRad, Hercules, Calif., USA).

C57BL/6J mice [4] = assay: Lung microstructure observation (PAS-stained lung slides) in APO-induced asthma model
Experimental: as §1, §3
Finally, the experimental mice were sacrificed, and lung slide specimens stained with periodic acid Schiff (PAS) were prepared. Then, changes of inflammatory cells and goblet cells were observed (arrowhead: mucin-positive goblet cell, arrow: inflammatory cell).

B1: GG-AP1L: human ferritin light chain having AP1L (CRKRLDRNC) inserted in GG cassette; AP1-retaining ferritin cage used in asthma model (protein)
chain: MSSQIRQNYSTDVEAAVNSLVNLYLQASYTYLSLGFYFDRDDVALEGVSHFFRELAEEKREGYERLLKMQNQRGGRALFQDIKKPAEDEWGKTPDAMKAAMALEKKLNQALLDLHALGSARTDPHLCDFLETHFLDEEVKLIKKMGDHLTNLHRGSCRKRLDRNCGGPEAGLGEYLFERLTLKHD
modifications: left off: small tags and cut ends
notes: AP1-retaining ferritin cage used in asthma model
C57BL/6J mice [1]
  airway hyper-responsiveness (AHR): significantly suppressed
C57BL/6J mice [2]
  count of eosinophils in BAL fluid: significantly decreased
  count of inflammation cells in bronchoalveolar lavage (BAL) fluid: significantly decreased
C57BL/6J mice [3]
  amount of secreted glycoprotein in BAL fluid: significantly reduced
C57BL/6J mice [4]
  counts of mucus-producing goblet cells: significantly reduced
  counts of peribronchial inflammatory cells: significantly reduced

— US9920105B2, “Human ferritin-derived fusion polypeptide” (Kyungpook National University Industry-Academic Cooperation …, priority 2013, dated 2018)
